Assay results published in patent US20260265696A1, “HUMAN IPSC DERIVED AMELOBLASTS AND USES THEREOF” (UNIVERSITY OF WASHINGTON, priority 2021, published 2026).

Tested on: hiPSCs (WTC-11) differentiating to ameloblasts (iAM)
Experiment: AMBN expression (QRT-PCR) in hiPSC-derived ameloblast (iAM) differentiation, day 10 to day 16, factors removed or added
Type: cell-based, human
Experimental: FIGS. 7A-7E: (FIG. 7A) Schematic of the 16-day differentiation protocol produced, which targets the identified signaling pathways utilizing growth factors and small molecules to transition through the ameloblast developmental trajectory. […] Each study was performed in triplicate, with error bars representing SEM. (FIG. 7C) The efficiency of each pathway activated in the differentiation from day 10 to day 16 were assessed by removing each agonist one at a time or adding FGFR2 mini binder to inhibit the FGFR2 pathway. AMBN expression was assessed in QRT-PCR, and each condition was performed in triplicate. Significance was determined by unpaired Student's t-test; ***p<0.001; ****p<0.0001; Graph error bars are the means±SEM.
To dissect which pathways were essential for the differentiation from day 10 to day 16, the process of elimination was used (FIG. 7C). […] It was hypothesized that the cells in culture secrete enough FGF ligands to saturate the receptors, and any exogenous ligands would have minimal effects. To test this hypothesis, a computationally designed protein was used, FGFR2 mini-binder (FGFR-mb), that specifically binds and inhibits the activity of the FGFR2 (Cao et al., 2022). […]
RNA was extracted using Trizol (Life Technologies) according to manufacturer's instructions. RNA samples were treated with Turbo DNase (Thermo Fisher Scientific) and quantified using Nanodrop ND-1000. […]

B1: BMP4: bone morphogenic protein-4 (protein, UniProt P12644 293-408, looked up)
Bone morphogenetic protein 4: SPKHHSQRARKKNKNCRRHSLYVDFSDVGWNDWIVAPPGYQAFYCHGDCPFPLADHLNSTNHAIVQTLVNSVNSSIPKACCVPTELSAISMLYLDEYDKVVLKNYQEMVVEGCGCR
- expression of AMBN when the factor is removed (factor removed independently from differentiation day 10 to day 16, compared to when all factors are present): significantly reduced to less than half

B2: FGFR2-binder: computationally designed protein that specifically binds and inhibits the activity of the FGFR2; binding sequence SEQ ID NO. 1 (protein)
chain: MGDRRKEMDKVYRTAYKRITSTPDKEKRKEVVKEATEQLRRIAKDEEEKKKAAYMISFLKTLGLEHHHHHH
- expression of AMBN on adding FGFR2 mini-binder (50 nM FGFR-mb added at day 14, harvested at day 16): almost totally abolished
